{"source": "patent US20210310910A1", "about": "(University of California, published 2021)", "binders": {"B1": {"name": "SpyTag peptide anchored to the graphene oxide grid via a PEG spacer (peptide)", "peptide": "VPTIVMVDAYKRYKC", "modifications": "also: Cys coupled to azide-PEG-maleimide on graphene oxide film, position not given here", "notes": "also called SpyTag grid"}}, "target": "T1, TRAP1 (human mitochondrial Hsp90) fused to SpyTag (human, UniProt Q12931 60-704, limits assumed)", "T1 construct": "Applied at 270 nM; also called TRAP1-SpyTag; TRAP1 with SpyTag", "T1 sequence": "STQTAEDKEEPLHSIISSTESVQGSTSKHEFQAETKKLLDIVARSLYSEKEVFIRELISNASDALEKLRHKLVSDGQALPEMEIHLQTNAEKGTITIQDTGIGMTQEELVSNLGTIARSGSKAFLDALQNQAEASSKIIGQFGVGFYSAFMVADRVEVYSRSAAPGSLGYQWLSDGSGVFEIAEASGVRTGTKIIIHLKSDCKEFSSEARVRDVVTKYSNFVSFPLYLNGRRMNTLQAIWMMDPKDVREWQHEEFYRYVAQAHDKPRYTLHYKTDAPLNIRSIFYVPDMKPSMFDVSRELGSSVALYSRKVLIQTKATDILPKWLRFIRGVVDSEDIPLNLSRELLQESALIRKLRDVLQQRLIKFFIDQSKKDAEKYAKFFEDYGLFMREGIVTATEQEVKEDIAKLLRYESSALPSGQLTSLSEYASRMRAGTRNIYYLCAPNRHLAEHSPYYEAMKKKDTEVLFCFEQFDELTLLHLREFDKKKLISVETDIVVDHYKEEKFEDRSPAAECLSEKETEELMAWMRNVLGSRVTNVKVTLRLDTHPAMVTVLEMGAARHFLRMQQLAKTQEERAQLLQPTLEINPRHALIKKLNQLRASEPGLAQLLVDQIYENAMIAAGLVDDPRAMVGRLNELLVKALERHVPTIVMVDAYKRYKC", "test": "cryo-EM particle density on SpyTag affinity grid after washing", "protocol": "The irreversible covalent bond forms within minutes and is highly specific and robust, paving the way for “purification on the grid”. A buffer with a pH of 7.5 containing 20 mM HEPES, 60 mM KCl was used throughout the process. SpyCatcher was diluted with buffer to a final concentration of 1.4 μM. SpyTag peptide was first dissolved in DMSO to a concentration of 560 μM and then diluted with buffer to a final concentration of 2.8 μM. […] The grid was washed with DI water and ethanol 3 times, and dried in ambient for 1 hour. Then the grid was picked up by tweezers from VITROBOT™ IV (Fisher Thermo Scientfic) and placed horizontally.\nAfter coupling the SpyTag or SpyCatcher to the maleimide grids, incubation with a cognate-tagged protein of interest efficiently formed a stable attachment in a matter of minutes. In a first example, a SpyTag grid was exposed to a dilute solution (270 nM) of the dimeric mitochondrial Hsp90 molecular chaperone (TRAP1, ˜150KDa) fused to either SpyTag (control) or SpyCatcher (cognate sample, total molecular weight ˜165KDa). The grids were extensively washed to remove unbound or loosely adsorbed proteins. TRAP1 with SpyCatcher or SpyTag was diluted in buffer with 1 mM ADP-BeFₓ/MgCl₂ and was incubated at 37° C. for 30 min to achieve a homogenous closed state of TRAP1²⁴. The concentration of TRAP1 was 270 nM in all cases. […]", "note": "Ends that are not written are not given here.", "data": [{"binder": "B1", "values": [{"measurement": "binding result", "result": "no binding (tested: 270 nM)"}]}]}
